Reference: US6716597B2, “Methods and products for regulating cell motility” (priority 2000, dated 2004)

B1: EGFP-Mena: EGFP fused to full-length Mena (amino acids 1-541 of SEQ ID NO: 2), expressed from retroviral vector pMSCV (protein)
chain: MSEQSICQARAAVMVYDDANKKWVPAGGSTGFSRVHIYHHTGNNTFRVVGRKIQDHQVVINCAIPKGLKYNQATQTFHQWRDARQVYGLNFGSKEDANVFASAMMHALEVLNSQEAAQSKVTATQDSTNLRCIFCGPTLPRQNSQLPAQVQNGPSQEELEIQRRQLQEQQRQKELERERMERERLERERLERERLERERLEQEQLERQRQEREHVERLERERLERLERERQERERERLEQLEREQVEWERERRMSNAAPSSDSSLSSAPLPEYSSCQPPSAPPPSYAKVISAPVSDATPDYAVVTALPPTSTPPTPPLRHAATRFATSLGSAFHPVLPHYATVPRPLNKNSRPSSPVNTPSSQPPAAKSCAWPTSNFSPLPPSPPIMISSPPGKATGPRPVLPVCVSSPVPQMPPSPTAPNGSLDSVTYPVSPPPTSGPAAPPPPPPPPPPPPPPPLPPPPLPPLASLSHCGSQASPPPGTPLASTPSSKPSVLPSPSAGAPASAETPLNPELGDSSASEPGLQAASQPAESPTPQGLVLG
modifications: left off: large carriers
B2: APPPP-mito: Control of FPPPP-mito with phenylalanine changed to alanine in each repeat; does not bind Ena/VASP proteins (protein)
chain: VNASDAPPPPTDEELRLALPETPMLLGFNAPATSEPSSFEAPPPPTDEELRLALPETPMLLGFNAPATSEPSSFEAPPPPTEDELEIIRETASSLDSSFTRGDLASLRNAINRHSQNFSDAPPIPTEEELNGRGGRPTSEEFSSLNSGDFTDDENSETTEEEIDRLADLRDRGTGKHSRNAGFLPLNPFASSPVPSLSPKVSKISAPALISDITKKTPFKNPSQPLNVFNKKTTTKTVTKKPTPVKTAPKLAELPATKPQETVLRENKTPFIEKQAETNKQSINMPSLPVIQKEATESDKEEMKPQTEEKMVEESESANNANGKNRSAGIEEGKLIAKSAEDEKAKEEPGNHTTLILAMLAIGVFSLGAFIKIIQLRKNN
modifications: left off: large carriers

How the values were obtained:
Rat2 fibroblasts = experiment: Time-lapse videomicroscopy random migration assay (cell speed, polarity); format: cell-based, rat; settings: Rat2 cells expressing the construct
Method: (§1) Cells adapted to microscopy media (Life Technologies, Rockville, Md.) as described above were trypsinized, counted, and resuspended in microscopy media at 7.14×10^3 cells/mL. 1.4 mL (10,000 cells) of this cell suspension was added to a ΔT dish (Bioptechs Inc., Butler, Pa.) that had previously been coated overnight with 10 μg/mL fibronectin (Becton Dickinson) at 4° C. and then blocked with lmg/mL cell-culture-grade BSA (Sigma, St. Louis, Mo.). Cells were allowed to attach and spread for 1 hour at 37° C. before movies were initiated. 10x phase contrast movies were 4.5 hours long with a frame taken every five minutes. A custom time-lapse collection script written in IPLabs was used to automate microscope and camera function. Light was shutter controlled. […] Cell paths were generated from the calculated centroid positions and parameters (speed and membrane flow) were calculated from the resulting path file. Speed was calculated using the Central Difference Method in DIAS, which is equivalent to a root mean squared calculation. […]
Rat 2 cells were exposed to 0, 5 nM, 25 nM, 50 nM, or 500 nM cytochalasin D and motility was measured. One set of cells received no cytochalasin D. Other cells received a low dose of cytochalasin D (e.g. 5 nM or 25 nM) or a high dose of cytochalasin D. (e.g. 500 nM) The motility of the treated cells was assessed using the motility assay described above.

Rat2 cells [1] = experiment: Count of vinculin- or zyxin-positive focal adhesions per cell; format: cell-based, rat; settings: Rat2 cells after complete spreading
Method: Rat2 cells (ATCC, Manassas, Va.) were plated and allowed to spread for 1.5-2 hours on acid-washed glass coverslips that had been coated overnight at 4° C. with 10 μg/mL fibronectin (Becton Dickinson, Franklin Lakes, N.J.). Cells were fixed with ice-cold 4% paraformaldehyde in PBS for 10 minutes at room temperature. Cells were washed twice with PBS and then permeabilized with 0.2% Triton X-100 in PBS for 3 minutes and washed two more times with PBS. Coverslips were blocked for 30 minutes in 5% BSA (RIA grade)/5% normalized Donkey serum in PBS. All subsequent antibody steps were incubated in 1% BSA/PBS for at least 30 minutes and washes were in PBS. Anti-Mena polyclonal antisera (2197, produced by Gertler laboratory) was used at 1:400, anti-VASP polyclonal antisera (M4, Alexis Corporation, San Diego, Calif.) was used at 1:400, coumarin-phallicidin (Molecular Probes Inc., Eugene, Oreg.) was used at 1:20, anti-vinculin monoclonal antibody (F7g, a kind gift from K. Burridge) was used at 1:20. All secondary antibodies (Texas Red-, Cy5-Donkey anti-rabbit or anti-mouse, Jackson ImmunoResearch Laboratories, Inc., West Grove, Pa.) were used at 1:500. Coverslips were mounted with Fluoromount G (Electron Microscopy Sciences, Fort Washington, Pa.) and viewed on a Zeiss Axiophot microscope equipped with a Deltavision imaging and software system (Applied Precision Inc., Issaquah, Wash.).
Cell-population analysis was undertaken to explore the hypothesis that focal adhesion formation and number are unaffected by overexpression or sequestration of Ena/VASP proteins. Because cell migration depends on adhesion as well as actin polymerization at the leading edge, the various cell populations were analyzed to determine if the assembly, morphology or distribution of focal adhesions was affected. EGFP-Mena overexpressing (the “high ” population), FPPPP-mito (SEQ ID NO: 3) and control cells were each stained after complete spreading with a battery of focal adhesion markers (FAK, vinculin, paxillin, tensin, phosphotyrosine, and zyxin).

Rat2 cells [2] = experiment: Membrane flow (protrusion/retraction, shape change) from digitized movies; format: cell-based, rat; settings: centroid fixed, independent of translocation
Method: as §1, with “controlled. Movies were considered analysis-quality if there were no focus or bubble problems and cells remained alive and dividing throughout the experiment. Once a movie met the quality control criteria, it was transferred into the image analysis program DIAS (Solltech, Inc., Oakdale, Iowa.) and cells were outlined using the Trace on Movie command.” for “controlled.”

MV^D7 cells = experiment: Time-lapse videomicroscopy cell speed in Ena/VASP-deficient MV^D7 fibroblasts; format: cell-based, mouse; settings: MV^D7 cells expressing the construct vs parental MV^D7
Method: as §1, with “controlled. Movies were considered analysis-quality if there were no focus or bubble problems and cells remained alive and dividing throughout the experiment. Once a movie met the quality control criteria, it was transferred into the image analysis program DIAS (Solltech, Inc., Oakdale, Iowa.) and cells were outlined using the Trace on Movie command.” for “controlled.”

Listeria = Listeria motility in MVD7 cells expressing Mena constructs; format: cell-based, Listeria monocytogenes; settings: high expression level, compared with GFP-Mena high (FIG. 11)
Method: MVD7 cells were seeded onto a Bioptics dish the night before an experiment, and Listeria was also cultured overnight taking care to not over saturate the bacterial culture. MVD7 cells were then exposed to Listeria. The Bioptics dishes were centrifuged at 500×g for 3 min in a swinging bucket centrifuge to force the bacteria up against the MVD7 cells. The cells were then incubated for 1.5 hrs at 37° C. The plates were washed 3 times with media to remove bacteria not associated with cells. Bacteria were then viewed with 100x phase contrast microscopy. Time-lapse movies were recorded and speeds were quantitated with DIAS software.

Row | Molecule | cell polarity / polarized morphology (Rat2 fibroblasts) | cell speed (Rat2 fibroblasts; fibronectin, 4.5 hour movies) | Number of Focal Adhesions per Cell (±SD), Vinculin+ (Rat2 cells [1]) | Number of Focal Adhesions per Cell (±SD), Zyxin+ (Rat2 cells [1]) | average membrane flow per unit time (shape change) (Rat2 cells [2]) | cell speed (MV^D7 cells) | Listeria motility (speed) (Listeria)
1 | B1 | distinct lack of polarity | cell speeds decreased with increasing levels of EGFP-Mena expression | 72.7 ± 14.4 | 73.6 ± 20 | changed shape the least | The MV^D7 cells migrated significantly faster than the MV^D7/EGFP-Mena cells | wild-type Listeria are mobile in MVD7 cells that express EGFP-Mena
2 | B2 | – | – | 81.6 ± 13.9 | 79.2 ± 29 | – | – | –
